This is an account of results in US20130244938A1 (Stanford University, published 2013).

Where no end group is shown, it is not given here.

Sequences and labels used below:
B1: WT RLN3 (recombinant human relaxin 3, Myc- and His6-tagged) (ligand, not shown: small tags and cut ends)
chain 1: RAAPYGVRLCGREFIRAVIFTCGGSRWHHHHHH
chain 2: DVLAGLSSSCCKWGCSKSEISSLC
modifications: not fully specified; ends and bridges not checked; also: N-terminal Myc epitope tag
B2: WT INSL3 (recombinant human insulin-like 3, Myc- and His6-tagged) (ligand, not shown: small tags and cut ends)
chain 1: PTPEMREKLCGHHFVRALVRVCGGPRWSTEAHHHHHH
chain 2: AAATNPARYCCLSGCTQQDLLTLCPY
B3: RLN2 T^A16A (ligand, not shown: small tags and cut ends)
chain 1: SWMEEVIKLCGRELVRAQIAICGMSTWSHHHHHH
chain 2: QLYSALANKCCHVGCAKRSLARFC
modifications: not fully specified; ends and bridges not checked; also: N-terminal Myc epitope tag
notes: Construct with the 8-amino acid linker, processed to the mature two-chain form
B4: WT RLN2 (recombinant wild type human RLN2, Myc- and His6-tagged) (ligand, not shown: small tags and cut ends)
chain 1: B3 chain 1
chain 2: QLYSALANKCCHVGCTKRSLARFC
notes: also called wild type RLN2; wild type peptide
B5: RLN2 R^A22A (ligand, not shown: small tags and cut ends)
chain 1: B3 chain 1
chain 2: QLYSALANKCCHVGCTKRSLAAFC
modifications: not fully specified; ends and bridges not checked; also: N-terminal Myc epitope tag
notes: as for B3
B6: RLN2^A19-20 (ligand, not shown: small tags and cut ends)
chain 1: B3 chain 1
chain 2: QLYSALANKCCHVGCTKRAAARFC
notes: It is read here as both residues changed to alanine
B7: RLN2 R^A18A (ligand, not shown: small tags and cut ends)
chain 1: B3 chain 1
chain 2: QLYSALANKCCHVGCTKASLARFC
B8: RLN2^A22-23 (ligand, not shown: small tags and cut ends)
chain 1: B3 chain 1
chain 2: QLYSALANKCCHVGCTKRSLAAAC
notes: as for B6
B9: Nontagged human RLN2 peptide (ligand)
chain 1: SWMEEVIKLCGRELVRAQIAICGMSTWS
chain 2: QLYSALANKCCHVGCTKRSLARFC
modifications: not fully specified (bridges); ends and bridges not checked
notes: Used as a standard; also called Nontagged RLN2; nontagged wild type RLN2 peptide

T2 sequence (Q8WXD0 whole entry): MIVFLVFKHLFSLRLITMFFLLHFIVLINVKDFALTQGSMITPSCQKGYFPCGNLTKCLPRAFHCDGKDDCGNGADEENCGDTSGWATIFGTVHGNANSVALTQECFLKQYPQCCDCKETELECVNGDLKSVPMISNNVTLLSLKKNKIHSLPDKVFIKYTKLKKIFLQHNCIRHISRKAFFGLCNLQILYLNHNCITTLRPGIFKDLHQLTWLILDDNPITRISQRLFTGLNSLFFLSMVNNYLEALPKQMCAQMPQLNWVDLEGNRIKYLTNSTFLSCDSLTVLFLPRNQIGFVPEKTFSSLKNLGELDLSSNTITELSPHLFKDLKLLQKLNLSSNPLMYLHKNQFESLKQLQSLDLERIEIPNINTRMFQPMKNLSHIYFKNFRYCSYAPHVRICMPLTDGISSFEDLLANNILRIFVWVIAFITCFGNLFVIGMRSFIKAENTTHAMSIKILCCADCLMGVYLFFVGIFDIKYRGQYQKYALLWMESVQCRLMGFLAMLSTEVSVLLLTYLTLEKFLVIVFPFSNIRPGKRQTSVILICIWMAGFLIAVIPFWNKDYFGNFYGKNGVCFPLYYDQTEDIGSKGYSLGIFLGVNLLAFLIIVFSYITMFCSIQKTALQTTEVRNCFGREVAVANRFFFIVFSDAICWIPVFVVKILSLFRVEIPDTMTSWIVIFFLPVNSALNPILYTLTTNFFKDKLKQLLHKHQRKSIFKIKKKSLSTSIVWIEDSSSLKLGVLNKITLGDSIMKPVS

One experiment addresses T1, LGR7 (leucine-rich repeat-containing GPCR 7) (human) (UniProt Q9HBX9).
T1 sequence (looked up): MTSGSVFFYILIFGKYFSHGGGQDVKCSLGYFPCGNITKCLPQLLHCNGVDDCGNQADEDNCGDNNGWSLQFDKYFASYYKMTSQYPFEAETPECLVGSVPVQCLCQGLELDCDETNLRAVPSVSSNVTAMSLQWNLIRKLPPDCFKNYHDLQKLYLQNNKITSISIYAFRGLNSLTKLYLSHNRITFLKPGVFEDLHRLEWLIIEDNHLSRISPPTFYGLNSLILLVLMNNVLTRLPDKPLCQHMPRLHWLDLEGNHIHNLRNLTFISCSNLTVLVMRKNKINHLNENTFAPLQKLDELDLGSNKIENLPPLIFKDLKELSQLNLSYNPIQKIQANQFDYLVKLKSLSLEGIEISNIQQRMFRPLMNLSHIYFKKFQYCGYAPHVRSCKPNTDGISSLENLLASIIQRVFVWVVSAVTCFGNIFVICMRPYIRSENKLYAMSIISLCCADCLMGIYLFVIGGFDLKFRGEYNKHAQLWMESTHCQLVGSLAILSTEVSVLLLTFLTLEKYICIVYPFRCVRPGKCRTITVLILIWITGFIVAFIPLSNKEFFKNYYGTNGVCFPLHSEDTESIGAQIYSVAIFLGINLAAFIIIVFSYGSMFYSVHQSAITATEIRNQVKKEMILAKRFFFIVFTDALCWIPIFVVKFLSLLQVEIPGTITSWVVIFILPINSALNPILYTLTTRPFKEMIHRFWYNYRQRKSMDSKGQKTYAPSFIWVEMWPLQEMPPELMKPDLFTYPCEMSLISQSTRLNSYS
Nature of the experiment: cell-based or functional assay.
WT RLN2 (His2) (ligand): the pEC50, stimulation of cAMP production in LGR7-expressing HEK293T cells amounted to 8.77.

The molecule WT RLN2 (His1) (ligand) registered a pEC50, stimulation of cAMP production in LGR7-expressing HEK293T cells of 8.66.

The molecule B1 displayed a pEC50, stimulation of cAMP production in LGR7-expressing HEK293T cells of 7.73.

Another experiment deals with LGR8 (leucine-rich repeat-containing GPCR 8) (human) (UniProt Q8WXD0). The experiment in a line: cell-based or functional assay.
LGR8 (leucine-rich repeat-containing GPCR 8) (human), sequence (Q8WXD0 whole entry): as the sequence (Q8WXD0 whole entry) above
Regarding B2, the pEC50, stimulation of cAMP production in LGR8-expressing HEK293T cells came out at 9.03.

Another experiment concerns the target T2, LGR8 (leucine-rich repeat-containing GPCR 8) (human, UniProt Q8WXD0 1-754). The experiment in a line: cell-based or functional assay.
Take B3: the “maximum LGR8-activation activity (cAMP production), against wild type RLN2” value is 2 fold.

For the next experiment, the target named is T3, LGR7 (leucine-rich repeat-containing GPCR 7) (human, UniProt Q9HBX9 1-757).
T3 sequence (looked up): T1 sequence (looked up)
The experiment in a line: cell-based or functional assay.
As to B4, the “pEC50, stimulation of cAMP production in LGR7-expressing HEK293T cells” value (“pEC50 … in LGR7-expressing HEK293T cells” below) turned out to be 9.3.

Turning to B5, the “pEC50 … in LGR7-expressing HEK293T cells” value was found to be 10.

As to B6, the “pEC50 … in LGR7-expressing HEK293T cells” value came to 8.56.

With B3, the “pEC50 … in LGR7-expressing HEK293T cells” value was 9.75.

For the molecule B7, the “pEC50 … in LGR7-expressing HEK293T cells” value was 9.67.

With B8, the “pEC50 … in LGR7-expressing HEK293T cells” value is 8.87.

With B9, the “pEC50 … in LGR7-expressing HEK293T cells” value worked out at 6.53.

Another experiment concerns the target T2, LGR8 (leucine-rich repeat-containing …). The experiment in a line: cell-based or functional assay. This is another data set of the same source.
B4: the “pEC50, stimulation of cAMP production in LGR8-expressing HEK293T cells” value (“pEC50 … in LGR8-expressing HEK293T cells” below) was 7.41.

With B5, the “pEC50 … in LGR8-expressing HEK293T cells” value is 7.51.

Take B6: the “pEC50 … in LGR8-expressing HEK293T cells” value was 8.41.

Regarding B3, the “pEC50 … in LGR8-expressing HEK293T cells” value came to 8.04.

Turning to B7, the “pEC50 … in LGR8-expressing HEK293T cells” value worked out at 7.56.

Another experiment has as its target T3, LGR7 (leucine-rich repeat-containing …). The experiment in a line: competition with 125I-RLN2 tracer on LGR7-expressing HEK293T cells. The method, then: (§1) To determine the binding characteristics of wild type and mutant peptides, HEK293T cells expressing LGR7 or LGR8 were grown to 90% confluence, collected by centrifugation at 3000×g for 2 min, and washed two times in 2 ml of ice-cold binding buffer. Cells were resuspended in ice-cold binding buffer, and aliquots of cell suspension were incubated with increasing doses of purified recombinant peptides in the presence of 0.025 pmol of ¹²⁵I-labeled RLN2 tracer (Phoenix Pharmaceuticals, Burlingame, Calif.) at room temperature for 2 h. After washing three times in an ice-cold binding buffer, radioactivity bound to the cells was measured using a y-counter (EG&G Wallace, Gaithersburg, Md.). Total binding was determined in the absence, and nonspecific binding in the presence, of 25 nmol of unlabeled RLN2. In regular assays, total binding was ˜30,000 cpm, and nonspecific binding amounted to less than 20% of the total binding. Data points were collected in triplicate, and similar results were obtained in at least two independent assays.
Regarding B4, the pIC50 worked out at 8.72.

The molecule B5 registered a pIC50 of 8.42.

B6 came in with a pIC50 of 8.21.

For the molecule B3, the pIC50 worked out at 8.4.

Take B7: the pIC50 came to 8.42.

Consider B8, for which the pIC50 amounted to 7.5.

For B9, the pIC50 stood at 8.78.

A further experiment has as its target T2, LGR8 (leucine-rich repeat-containing …). The experiment in a line: competition with 125I-RLN2 tracer on LGR8-expressing HEK293T cells. The method, then:
as §1
With B4, the pIC50 was determined as 7.9.

On to B5, for which the pIC50 is 6.8.

Turning to B6, the pIC50 was 7.51.

For B3, the pIC50 amounted to 7.74.

Take B7: the pIC50 came out at 7.46.

Another experiment has the same target. Nature of the experiment: competition with 125I-RLN2 on LGR8-expressing HEK293T cells (Table 2 cell: ND, pIC50 not measurable). The method, then:
as §1
For B8, the binding result was “no binding”.
